# From the nanobody polyreactivity screen of Harvey et al. (2022)
# Test: yeast display, Sf9 membrane polyspecificity reagent, FACS + sequencing; frameworks hold sequencing errors
# In short: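 A nanobody's polyreactivity label depends on the gate it was sorted from. Yeast display cells were stained with 10% biotinylated, detergent-solubilized Sf9 membrane reagent for 1 hour at 4 °C, enriched on streptavidin microbeads and sorted by FACS. The low and high (top ~1%) gates were set on anti-HA fluorescence for expression and streptavidin fluorescence for reagent binding.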
row,Sequence,polyreactivity (PSR sort gate)
1,QVQLVESGGGLVQAGGSLRLSCAASGSIFVYYALGWYRQAPGKERELVAAISSSGDTTYYADSVKGRFTISRDNAKNTVYLQMNSLKPEDTAVYYCNTRNDRASQRWVSREMDYWGQGTQVTVSS,high polyreactivity
2,QVQLVESGGGLVQAGGSLRLSCAASGSIFVYYAMGWYRQAPGKERELVARITRGGRTYYADSVKGRFTISRDNAKNTVYLQMNSLKPEDTAVYYCAADYRVQLRKEYDYWGQGTQVTVSS,high polyreactivity
3,QVQLVESGGGLVQAGGSLRLSCAASGSIFVYYAMGWYRQAPGKERELVATINYNDGSTYYADSVKGRFTISRDNAKNTVYLQMNSLKPEDTAVYYCAADIVWSPESHPWYYVHYYYWGQGTQVTVSS,low polyreactivity
4,QVQLVESGGGLVQAGGSLRLSCAASGSIFVYYTMGWYRQAPGKERELVAAISISGTSTYYADSVKGRFTISRDNAKNTVYLQMNSLKPEDTAVYYCAADTYYGEDYWGQGTQVTVSS,low polyreactivity
5,QVQLVESGGGLVQAGGSLRLSCAASGSIFWANAMGWYRQAPGNERELVAAISRSGTSTFYADSVKGRFTISRDNAKNTVYLQMNSLKPEDTAVYYCNAVGSGYRSWYVYWGQGTQVTVSS,high polyreactivity
6,QVQLVESGGGLVQAGGSLRLSCAASGSIFWAYAMGWYRQAPGKERELVAAISRGGTTTYADSVKGRFTISRDNAKNTVYLQMNSLKPEDTAVYYCARRAVYSKRRYDYWGQGTQVTVSS,low polyreactivity
7,QVQLVESGGGLVQAGGSLRLSCAASGSIFWDYAMGWYRQSPGKERELVAAISGSGTSTYYADSVKGRFTISRDNAKNTVYLQMNSLKPEDTAVYYCAARIWTGRGRKLGNGYDYWGQGTQVTVSS,low polyreactivity
8,QVQLVESGGGLVQAGGSLRLSCAASGSIFWGNAMGWYRQAPGKERELVAAIDWSGGSTYYADSVKGRFTISRDNAKNTVYLQMHSLKPEDTAVYYCAASGRYDYDYWGQGTQVTVSS,low polyreactivity
9,QVQLVESGGGLVQAGGSLRLSCAASGSIFWGNAMGWYRQAPGKERELVAGISRGGSTYYADSVKGRFTISRDNAKNTVYLQMNSLKPEDTAVYYCNADSDPVTAGYDYWGQGTQVTVSS,low polyreactivity
10,QVQLVESGGGLVQAGGSLRLSCAASGSIFWGNTMGWYRQAPGKERELVAAISRSGSSTYYADSVKGRFTISRDNAKNTVYLQMNSLKPEDTAVYYCAASVPYYTGYYYNAYEYWGQGTQVTVSS,high polyreactivity
11,QVQLVESGGGLVQAGGSLRLSCAASGSIFWHNAMGWYRQAPGTEREFVAAISGSGGSTYYADSVKGRFTISRDNAKNTVYLQMISLKPEDTAVYYCAADIYYWSFYYSRYDYWGQGTQVTVSS,high polyreactivity
12,QVQLVESGGGLVQAGGSLRLSCAASGSIFWKNAMGWYRQAPGKERELVAAITRRGGSTYYADSVKGRFTISRDNAKNTVYLQMNSLKPEDTAVYYCAATGGAPYKIEWGQGTQVTVSS,low polyreactivity
13,QVQLVESGGGLVQAGGSLRLSCAASGSIFWKYAMGWYRQAPGKERELVAAISDGVSTNYADSVKGRFTISRDNAQNTVYLQMNSLKPEDTAVYYCNAETRERDPTREFDYWGQGTQVTVSS,low polyreactivity
14,QVQLVESGGGLVQAGGSLRLSCAASGSIFWNAMGWNKQAPGKERELVAAISWSGTRTYYADSVKGRFTISRDNAKNTVYLQMNSLKPEDTAVYYCNAVQWNAYYYWGQGTQVTVSS,high polyreactivity
15,QVQLVESGGGLVQAGGSLRLSCAASGSIFWNNDMGWYRPAPGKERELVAGISGGSTNYADSVKGRFTISRDNAKNTVYLQMNSLKPEDTAVYYCATERQWESRLEAYDYWGQGTQVTVSS,low polyreactivity
16,QVQLVESGGGLVQAGGSLRLSCAASGSIFWPNAMGWYRQAPGKERELVAAISRGGSTNYADSVKGRFTISRDNAKNTVYLQMNSLKPEDTAVYYCATDAYYYNLLYLFPRYDYWGQGTQVTVSS,low polyreactivity
17,QVQLVESGGGLVQAGGSLRLSCAASGSIFWPYAMGWYRQAPGKEREFVAAITWSGGSTYYADSVKGRFTISRDNAKNTVYLQMNSLKPEDTAVYYCAAEITWYYHDFGYWGQGTQVTVSS,high polyreactivity
18,QVQLVESGGGLVQAGGSLRLSCAASGSIFWPYTMGWSRQAPGKECELVAAITSTDSTDYADSVKGRFTISRDNAKNTVYLQMNSLKPEDTAVYYCNADYQSRTGSGIYTDHPYDYWGQGTQVTVSS,low polyreactivity
19,QVQLVESGGGLVQAGGSLRLSCAASGSIFWQYAMGWYRQAPGKERELVAAINWSGDTTYYADSVKGRFTISRDNAKNTVYLQMNSLKPEDTAVYYCAAVGGVSFGGSPKTHAGEDYWGQGTQVTVSS,low polyreactivity
20,QVQLVESGGGLVQAGGSLRLSCAASGSIFWRNAMGWYRQAPGKEREFVAAISARGGSTYYADSVKGRFTISRDNAKNTVYLQMNSLKPEDSAVYDCAASWGLGTYSDSTYWGGYYYWGQGTQVTVSS,low polyreactivity
21,QVQLVESGGGLVQAGGSLRLSCAASGSIFWRNAMGWYRQAPGKERELVAAISGNGGTTYYADSVKGRFTISRDNAKNTVYLQMNSLKPEDTAVYYCAKVGKTYRTYEYWGQGTQVTVSS,high polyreactivity
22,QVQLVESGGGLVQAGGSLRLSCAASGSIFWRYAMGWYRQAPGKERELVAAIDVSGATTYYADSVKGRFTISRDNAKNTVYLQMNSLKPEDTAVYYCATYATNSVAAYDYWGQGTQVTVSS,low polyreactivity

row,Sequence,polyreactivity (PSR sort gate)
1,QVQLVESGGGLVQAGGSLRLSCAASGSIFWRYAMGWYRQAPGKERELVAVISDRGGITYYADSVKGRFTISRDNAKNTVYLQMNSLKPEDTAVYYCNAVDSDRSDPSEYDYWGQGTQVTVSS,low polyreactivity
2,QVQLVESGGGLVQAGGSLRLSCAASGSIFWSNARGWYRQAPGKERELVATIDDDVGSTYYADSVKGRFTISRDNAKNTVYLQMNSLKPEDTAVYYCAADSVYYVMPYEYWGQGTQVTVSS,low polyreactivity
3,QVQLVESGGGLVQAGGSLRLSCAASGSIFWSYAMGWYRQAPGKEREFVASITGSGGTTTYADSVKGRFTISRDNAKNTVYLQMNSLKPEDTAVYYCNARLHGWYHVYYIYDYWGQGTQVTVSS,low polyreactivity
4,QVQLVESGGGLVQAGGSLRLSCAASGSIFWTKAMGWYRQAPGKERELVARITYSGGSTYYADSVKGRFTISRDNAKNTVYLQMNSLKPEDTAVYYCNARTHGWPYSRYYYWGQGTQVTVSS,high polyreactivity
5,QVQLVESGGGLVQAGGSLRLSCAASGSIFWVNGMGWYRQAPGKERELVAAITWSGGSTYYADSVKGRFTISRDNAKNTVYLQMNSLKPEDTAVYYCAAYCQYYLWDGYGYWGQGTQVTVSS,low polyreactivity
6,QVQLVESGGGLVQAGGSLRLSCAASGSIFWVYAMGWYRQAPGKERELVAAISSSGGRTYYADSVKGRFTISRDNAKNTVYLQMNSLKPEDTAVYYCASRWKTGYNYWGQGTQVTVSS,high polyreactivity
7,QVQLVESGGGLVQAGGSLRLSCAASGSIFWVYAMGWYRQAPGKERELVADISRSGGSTYYADSVKGRFTISRDNAKNTVYLQMNSLKPEDTAVYYCAAEYYGQVLFQPYVYQLMYYWGQGTQVTVSS,low polyreactivity
8,QVQLVESGGGLVQAGGSLRLSCAASGSIFWWYAMGWYRPAPGKERELVAAISGRGGNTYYADSVKGRFTISRDNAKNTVYLQMNSLKPEDTAVYYCNADDTKYPYYTDDYWGQGTQVTVSS,low polyreactivity
9,QVQLVESGGGLVQAGGSLRLSCAASGSIFWYNAMGWYRQAPGKERELVAAIDRSGGNTYYADSVKGRFTISRDNAKNTVYLQMNSLKPEDTAVYYCARRIGRTYRYVYWGQGTQVTVSS,high polyreactivity
10,QVQLVESGGGLVQAGGSLRLSCAASGSIFWYNAMGWYRQAPGKERELVAAIRWRGGSTYYADSVKGRFTISRDNAKNTVYLQMNSLKPEDTAVYYCARDRYYRTLGYGYWGQGTQVNVSS,high polyreactivity
11,QVQLVESGGGLVQAGGSLRLSCAASGSIFWYNAMGWYRQAPGKERELVAAIRWRGGSTYYADSVKGRFTISRDNAKNTVYVQMSSLKPEDTAVYYCAAQVYVSQLYTSYYYWGQGTQVTVSS,high polyreactivity
12,QVQLVESGGGLVQAGGSLRLSCAASGSIFWYYAMGWYRQAPGKERELVAAISISGSTYYADSVKGRFTISRDNAKNTVYLQMNSLKPEDTAVYYCAARKFFWRSNYDYWGQGTQVTVSS,low polyreactivity
13,QVQLVESGGGLVQAGGSLRLSCAASGSIFWYYAMGWYRQAPGKERELVASISSSGGSTYYADSVKGRFTISRDNAKNTVYLQMNSLKPEYTAVYYCAKRTNWGYWYNSWGQGTQVTVSS,high polyreactivity
14,QVQLVESGGGLVQAGGSLRLSCAASGSIFWYYAMGWYRQAPGKERELVASITSAGSTNYADSVKGRFTISRDNAKNTVYLQMNSLKPEDTAVYYCNTDDDSSSTGYYSWGQGTQVTVSS,low polyreactivity
15,QVQLVESGGGLVQAGGSLRLSCAASGSIFYANTLGWYRQAPGTERELVAAINWSGGRTYYADSVKGRFTISRDNAKNTVYLQMNSLKPEDTAVYYCAASATYLYKYPVWGYDYWGQGTQVTVSS,high polyreactivity
16,QVQLVESGGGLVQAGGSLRLSCAASGSIFYANTMGWYRQAPGKEREFVAAITWSGGSTYYADSVKGRFTISRDNAKNTVYLQMNSLKPEDTAVYYCAAEEQRYWYEYYYWGQGTQVTVSS,high polyreactivity
17,QVQLVESGGGLVQAGGSLRLSCAASGSIFYAYAMGWYRQAPGKEMELVAAIDTSGGRTYYADSVKGRFTISRDNAKNTVYLQLNSLKPEDTAVYYCDAECPCYNEHYYWGQGTQVTVSS,high polyreactivity
18,QVQLVESGGGLVQAGGSLRLSCAASGSIFYAYAMGWYRQAPGKERELVAAIRSSDSRTYYADSVKGRFTISRDNAKNTVYLQMNSLKPEDTAVYYCAADGSRKVKFDYWGQGTQVTVSS,high polyreactivity
19,QVQLVESGGGLVQAGGSLRLSCAASGSIFYDNAMGWYRQAPGKERELVAVISNSGRTDYADSVKGRFTISRDNAKNTVYLQMNSLKPEDTAVYYCAAVVQGTTVWWGYDYWGQGTQVTVSS,low polyreactivity
20,QVQLVESGGGLVQAGGSLRLSCAASGSIFYENMGWYRQAPGKERELVASISWSGTSTYADSVKGRFTISRDNAKNTVYLQMNSLKPEDTAVYYCAAGKNGYTYSRSYSYGYWGQGTQVTVSS,high polyreactivity
21,QVQLVESGGGLVQAGGSLRLSCAASGSIFYEYAMGWYRQAPGKEREFVAAISSSGGSTYYADSVKGRFTISRDNAKNTVYLQMNSLKPEDTAVYYCAADIYYYLWGLYYWGQGTQVTVSS,low polyreactivity
